Key:
[1] = target: SCFM, stem cell factor V49L F63L double mutant, soluble (UniProt P21583); assay: small angle X-ray scattering; purified SCFWT and SCFM at 3 or 5 mg/mL (193 or 322 µM), 25 °C; radius of gyration compared with that of the theoretical monomer and dimer from PDB 1SCF
[2] = target: T1, recombinant c-Kit (R&D Systems) (UniProt P10721 26-524); assay: SPR; ProteOn XPR36; c-Kit amine-coupled to a GLC chip; SCF proteins flowed in PBST at 100 µL/min, 25 °C; KD from the equilibrium-binding phase, 1:1 Langmuir model; BSA channel subtracted; details: both partners purified
T1 construct: c-Kit receptor tyrosine kinase, recombinant; No catalogue number printed; the discussion calls it 'recombinant soluble c-Kit'; also called surface-immobilized c-Kit; recombinant soluble c-Kit; source: bought: R&D Systems
T1 sequence (P10721 26-524): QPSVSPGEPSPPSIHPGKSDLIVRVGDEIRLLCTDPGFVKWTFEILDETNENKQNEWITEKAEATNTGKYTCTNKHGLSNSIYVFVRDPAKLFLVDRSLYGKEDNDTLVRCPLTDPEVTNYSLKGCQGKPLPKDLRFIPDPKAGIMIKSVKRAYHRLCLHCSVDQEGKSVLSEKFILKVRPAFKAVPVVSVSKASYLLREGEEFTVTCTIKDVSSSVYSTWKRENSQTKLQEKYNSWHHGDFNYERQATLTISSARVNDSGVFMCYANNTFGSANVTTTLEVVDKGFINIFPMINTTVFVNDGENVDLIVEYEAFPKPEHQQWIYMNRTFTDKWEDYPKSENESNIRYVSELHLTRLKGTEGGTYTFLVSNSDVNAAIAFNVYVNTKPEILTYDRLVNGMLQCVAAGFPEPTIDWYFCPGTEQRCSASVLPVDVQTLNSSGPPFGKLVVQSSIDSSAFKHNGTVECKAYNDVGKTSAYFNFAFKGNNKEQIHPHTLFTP

Row | stoichiometry N [1] | Kd [2] [nM] | Molecule
1 | 2 | – | SCFM, stem cell factor V49L F63L double mutant, soluble (from UniProt P21583 26-214) (ligand)
2 | – | 88.9 | SCF_(M,K91E), soluble (ligand, UniProt P21583 26-214, looked up, stem cell factor (SCF), SCFM (V49L, F63L) with K91E, selected from the first-generation yeast display library; source: purified in non-glycosylated form (production described in the Supplementary Materials)) EGICRNRVTNNVKDVTKLVANLPKDYMITLKYVPGMDVLPSHCWISEMLVQLSDSLTDLLDKLSNISEGLSNYSIIDKLVNIVDDLVECVEENSSKDLKKSFKSPEPRLFTPEEFFRIFNRSIDAFKDFVVASETSDCVVSSTLSPEKDSRVSVTKPFMLPPVAASSLRNDSSSSNRKAKNPPGDSSLH
3 | – | 40.7 | SCF_(M,K91E,L98R), soluble (ligand, UniProt P21583 26-214, looked up, stem cell factor (SCF), SCFM (V49L, F63L) with K91E and L98R, selected from the second-generation yeast display library; also called SCF_(K91E,L98R); source: purified in non-glycosylated form (production described in the Supplementary Materials)) EGICRNRVTNNVKDVTKLVANLPKDYMITLKYVPGMDVLPSHCWISEMLVQLSDSLTDLLDKLSNISEGLSNYSIIDKLVNIVDDLVECVEENSSKDRKKSFKSPEPRLFTPEEFFRIFNRSIDAFKDFVVASETSDCVVSSTLSPEKDSRVSVTKPFMLPPVAASSLRNDSSSSNRKAKNPPGDSSLH
4 | – | 74.4 | SCF_(M,S64P,F126S,V131A,E134G,V139I), soluble (ligand, UniProt P21583 26-214, looked up, stem cell factor (SCF), SCFM (V49L, F63L) with S64P, F126S, V131A, E134G and V139I, selected from the first-generation yeast display library; also called SCFM,N; source: purified in non-glycosylated form (production described in the Supplementary Materials)) EGICRNRVTNNVKDVTKLVANLPKDYMITLKYVPGMDVLPSHCWISEMLVQLSDSLTDLLDKLPNISEGLSNYSIIDKLVNIVDDLVECVKENSSKDLKKSFKSPEPRLFTPEEFFRIFNRSIDASKDFVAASGTSDCIVSSTLSPEKDSRVSVTKPFMLPPVAASSLRNDSSSSNRKAKNPPGDSSLH

Source: article PMC7588011, “Engineering Stem Cell Factor Ligands with Different c-Kit Agonistic Potencies” (Molecules, 2020)
